Assay results published in patent US20220127350A1 (NUMAB THERAPEUTICS, published 2022).

B1: A4 (trispecific tribody, Fab-(scFv)2) (other)
light: DIQMTQSPSSLSASVGDRVTITCQASQTINYWLAWYQQKPGKAPKLLIYRASTLASGVPSRFSGSGSGTDFTLTISSLQPEDFATYYCQNYYYSTSRSYGFGGGTKLTVLGRTRTVAAPSVFIFPPSDEQLKSGTASVVCLLNNFYPREAKVQWKVDNALQSGNSQESVTEQDSKDSTYSLSSTLTLSKADYEKHKVYACEVTHQGLSSPVTKSFNRGECGGGGSGGGGSDIQMTQSPSSLSASVGDRVTINCQASESISSWLAWYQQKPGKRPKLLIYKASTLASGVPSRFSGSGSGTDYTLTISSLQPEDFATYYCQGYYLDSSVDDNVFGGGTKLTVLGGGGGSGGGGSGGGGSGGGGSEVQLVESGGGLVQPGGSLRLSCAASGIDFSTYGISWVRQAPGKGLEWIAYIYPDYGITDYASWVNGRFTISLDNAQNTVYLQMNSLRAEDTAVYYCARSGSYYSRGWGAHYFNLWGQGTLVTVSS
heavy: EVQLVESGGGLVQPGGSLRLSCAASGFSFSSDYWMCWVRQAPGKGLEWIGCIYAGDVDDTDYASWARGRFTISRDNSKNTVYLQMNSLRAEDTAVYYCARVDGFDITYFDLWGQGTLVTVSSASTKGPSVFPLAPSSKSTSGGTAALGCLVKDYFPEPVTVSWNSGALTSGVHTFPAVLQSSGLYSLSSVVTVPSSSLGTQTYICNVNHKPSNTKVDKKVEPKSCGGGGSGGGGSDIQMTQSPSSLSASVGDRVTITCQSSESVYSNNQLSWYQQKPGQPPKLLIYDASDLASGVPSRFSGSGSGTDFTLTISSLQPEDFATYYCAGGFSSSSDTAFGGGTKLTVLGGGGGSGGGGSGGGGSGGGGSEVQLVESGGGLVQPGGSLRLSCAASGFSLSSNAMGWVRQAPGKGLEYIGIISVGGFTYYASWAKGRFTISRDNSKNTVYLQMNSLRAEDTATYFCARDRHGGDSSGAFYLWGQGTLVTVSS
notes: Trispecific tribody
B2: A3 (trispecific tribody, Fab-(scFv)2) (other)
light: DIQMTQSPSSLSASVGDRVTITCQSSESVYSNNQLSWYQQKPGQPPKLLIYDASDLASGVPSRFSGSGSGTDFTLTISSLQPEDFATYYCAGGFSSSSDTAFGGGTKLTVLGRTRTVAAPSVFIFPPSDEQLKSGTASVVCLLNNFYPREAKVQWKVDNALQSGNSQESVTEQDSKDSTYSLSSTLTLSKADYEKHKVYACEVTHQGLSSPVTKSFNRGECGGGGSGGGGSDIQMTQSPSSLSASVGDRVTINCQASESISSWLAWYQQKPGKRPKLLIYKASTLASGVPSRFSGSGSGTDYTLTISSLQPEDFATYYCQGYYLDSSVDDNVFGGGTKLTVLGGGGGSGGGGSGGGGSGGGGSEVQLVESGGGLVQPGGSLRLSCAASGIDFSTYGISWVRQAPGKGLEWIAYIYPDYGITDYASWVNGRFTISLDNAQNTVYLQMNSLRAEDTAVYYCARSGSYYSRGWGAHYFNLWGQGTLVTVSS
heavy: EVQLVESGGGLVQPGGSLRLSCAASGFSLSSNAMGWVRQAPGKGLEYIGIISVGGFTYYASWAKGRFTISRDNSKNTVYLQMNSLRAEDTATYFCARDRHGGDSSGAFYLWGQGTLVTVSSASTKGPSVFPLAPSSKSTSGGTAALGCLVKDYFPEPVTVSWNSGALTSGVHTFPAVLQSSGLYSLSSVVTVPSSSLGTQTYICNVNHKPSNTKVDKKVEPKSCGGGGSGGGGSDIQMTQSPSSLSASVGDRVTITCQASQTINYWLAWYQQKPGKAPKLLIYRASTLASGVPSRFSGSGSGTDFTLTISSLQPEDFATYYCQNYYYSTSRSYGFGGGTKLTVLGGGGGSGGGGSGGGGSGGGGSEVQLVESGGGLVQPGGSLRLSCAASGFSFSSDYWMCWVRQAPGKGLEWIGCIYAGDVDDTDYASWARGRFTISRDNSKNTVYLQMNSLRAEDTAVYYCARVDGFDITYFDLWGQGTLVTVSS
notes: Trispecific anti-IL-17A x TNFα x HSA tribody; Expressed in CHO-S

Tests used:
[1] = target: T1, human TNFα (human, UniProt P01375 77-233); assay: SPR (Biacore T200), biotinylated antigen captured (Biotin-CAPture), trispecific as analyte;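 also: multicycle dose-response kinetics, analyte at 0.35–90 nM in running buffer, CAP chip regenerated with fresh antigen each cycle, sensorgrams fitted to a 1:1 binding model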
T1 construct: Biotinylated in the Biacore assay
Experimental: (§1) In this experiment, the biotinylated antigens were captured using the Biotin-CAPture kit from Biacore. After each analyte injection cycle the CAP sensor chip was regenerated and new antigen was captured. Trispecific molecules were injected as analyte using a dose response multicycle kinetic assay with concentrations of the analyte ranging from 0.35 to 90 nM diluted in running buffer. Obtained sensorgrams were fitted using the 1:1 binding model.

[2] = target: T2, human IL-17A (human, UniProt Q16552 24-155); assay: as above
T2 construct: Recombinant human IL-17A (Peprotech Cat. No. 200-17), disulfide-linked homodimer from E. coli; Biotinylated or RPE-labelled in some assays; also called hIL-17A; IL-17A-RPE (labelled)
Experimental: as §1

[3] = target: T2, human IL-17A; assay: competitive ELISA: IL-17RA coated, biotinylated IL-17A preincubated with trispecific molecule
Experimental: (§2) Finally, Tetramethylbenzidine solution was added to develop the plate for 5 to 10 minutes and the reaction was stopped with 1 M HCl. The plate was read at 450 nm and 570 nm (reference wavelength).

[4] = target: T3, human serum albumin (human, UniProt P02768 25-609); assay: SPR (MASS-1), trispecific immobilised, antigens injected sequentially
T3 construct: also called HSA
Experimental: (§3) All possible sequences of antigen injection were tested resulting in six possible sequences.
(§4) To evaluate concomitant binding of each antigen to trispecific molecules, the binding level relative to the theoretical Rmax was calculated for each injection using the respective ligand and analyte molecular masses and the immobilization level of the trispecific molecules. The average of the maximum binding relative to theoretical Rmax for each antigen was obtained by averaging individual maximum binding relative to theoretical Rmax obtained for the two injections where the respective antigen was injected as first analyte (in the absence of other bound antigens). Next, the binding relative to the theoretical Rmax of each analyte injection was compared to its average maximum binding to calculate the fraction binding obtained in the presence of other bound antigens. […] The binding levels relative to the theoretical Rmax and the average of maximum binding (binding levels in the absence of other antigens) of each antigen were calculated.

[5] = target: T1, human TNFα; assay: as above
Experimental: as §3, §4

[6] = target: T2, human IL-17A; assay: as above
Experimental: as §3, §4

[7] = target: T1, human TNFα; assay: cell-based or functional assay
[8] = target: T2, human IL-17A; assay: cell-based or functional assay
[9] = target: T3, human serum albumin; assay: SPR (MASS-1), trispecific immobilised, HSA injected as last analyte
Experimental: as §3, §4

[10] = target: T2, human IL-17A; assay: competitive ELISA: biotinylated human IL-17A preincubated with the trispecific molecule, then binding to coated IL-17RA detected (blocked ligand: IL-17RA) [left panel]
[11] = target: T1, human TNFα; assay: SPR (summary table), affinity to human TNF
Experimental: as §1

[12] = target: T2, human IL-17A; assay: SPR (summary table), affinity to human IL-17, capture setup
Experimental: as §1

[13] = target: T3, human serum albumin; assay: SPR (summary table), affinity to HSA at pH 5.5
Experimental: (§5) The binding to human serum albumin (HSA) and cynomolgus serum albumin (CSA) was assessed for purified trispecific molecules by running SPR spectroscopy on a MASS-1 device (Sierra Sensors). HSA was directly immobilized on a high capacity amine sensor chip (Sierra Sensors) and trispecific molecules were injected as analyte using a dose response multicycle kinetic assay with concentrations of the analyte ranging from 0.35 to 90 nM diluted either in running buffer at pH5.5 or pH7.5. Obtained sensorgrams were fitted using the 1:1 binding model. Affinity to CSA was assessed in a similar approach using a CSA immobilized sensor chip.

[14] = target: T3, human serum albumin; assay: SPR (MASS-1), HSA immobilised, trispecific as analyte, pH 5.5
Experimental: as §5

[15] = target: T1, human TNFα; assay: cell-based or functional assay; remark: listed apart in the source
[16] = target: T2, human IL-17A; assay: competitive ELISA, blocking of IL-17A/IL-17RA interaction (summary table)
Experimental: as §2

[17] = target: T3, human serum albumin; assay: SPR (MASS-1), HSA immobilised, trispecific as analyte, pH 7.4
Experimental: as §5

Row | Binder | Kd [1] | koff [1] | kon [1] | Kd [2] | koff [2] | kon [2] | rel. IC50 to secukinumab (IC50, secukinumab/IC50, test sample, ng/ml) [3] | antigen binding relative to average maximum binding [4] | antigen binding relative to average maximum binding [5] | antigen binding relative to average maximum binding [6] | rel. IC50 to A13 (nM) in HT-29 assay, +HSA [7] | rel. IC50 to A13 (nM) in HT-29 assay, -HSA [7] | rel. IC50 to secukinumab (ng/ml) in HT-29 assay, +HSA [8] | rel. IC50 to secukinumab (ng/ml) in HT-29 assay, -HSA [8] | IC50 (read off the curve) [10] | Kd [11] | Kd [12] | Kd [13] | Kd [14] | koff [14] | also measured
1 | B1 | 257 pM | 2.33e-05 s⁻¹ | 90800 M⁻¹ s⁻¹ | 337 pM | 7.23e-05 s⁻¹ | 215000 M⁻¹ s⁻¹ | 6.3 | ≥ 70% | ≥ 70% | ≥ 70% | 0.3 | 0.6 | 6 | 7.1 | ~3 ng/mL | 257 pM | 337 pM | 1670 pM | 1670 pM | 0.000308 s⁻¹ | relative binding level compared to average maximum binding [9]: ~70%; kon [14]: 185000 M⁻¹ s⁻¹; IC50 in L929 assay, cell viability [15]: 80 pM; rel. IC50 in L929 assay (IC50, A13/IC50, test sample, nM) [15]: 0.2; rel. IC50 (IC50, secukinumab/IC50, test sample, ng/ml) [16]: 6.3; Kd [17]: 4790 pM; koff [17]: 0.000417 s⁻¹; kon [17]: 87200 M⁻¹ s⁻¹
2 | B2 | < 23.2 pM | < 1e-06 s⁻¹ | 43100 M⁻¹ s⁻¹ | 1530 pM | 9.04e-05 s⁻¹ | 59100 M⁻¹ s⁻¹ | 2.2 | ≥ 70% | ≥ 70% | ≥ 70% | 0.5 | 0.2 | 11.8 | 2.4 | ~9 ng/mL | < 23.2 pM | 1530 pM | 947 pM | 947 pM | 0.00059 s⁻¹ | kon [14]: 623000 M⁻¹ s⁻¹; IC50 in L929 assay, cell viability [15]: 4500 pM; rel. IC50 in L929 assay (IC50, A13/IC50, test sample, nM) [15]: 0.003; rel. IC50 (IC50, secukinumab/IC50, test sample, ng/ml) [16]: 2.2; Kd [17]: 1370 pM; koff [17]: 0.000557 s⁻¹; kon [17]: 406000 M⁻¹ s⁻¹
